In the nanobody polyreactivity screen of Harvey et al. (2022):

Assay: yeast display, Sf9 membrane polyspecificity reagent, FACS + sequencing; frameworks hold sequencing errors
In short: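 Nanobodies came from a synthetic yeast display library in Saccharomyces cerevisiae BJ5465, induced with galactose for 36–48 hours and stained for 1 hour at 4 °C with 10% biotinylated, detergent-solubilized Sf9 membrane reagent. Cells were enriched on streptavidin microbeads and then FACS-sorted, with low and high (top ~1%) gates set on anti-HA fluorescence for expression and streptavidin fluorescence for reagent binding. Each polyreactivity label reflects the gate a clone came from. Genes were amplified by colony PCR, sequenced by MiSeq 2 × 250 and filtered by CDR length.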

Row | Sequence | polyreactivity (PSR sort gate)
1 | QVQLVESGGGLVQAGGSLRLSCAASGSTFAPNAMGWYRQAPGKERELVAAISSGSSTYYADSVKGRFTISRDNAKNTVYLQMNSLKPEDTAVYYCARRVSWGYYYWGQGTQVTVSS | high polyreactivity
2 | QVQLVESGGGLVQAGGSLRLSCAASGSTFAPNAMGWYRQAPGKERELVAAISSGSSTYYADSVKGRFTISRDNAKNTVYLQMNSLKQEVNAVYYCAARSTYYSRKQLVDYWGQGTQVTVSS | high polyreactivity
3 | QVQLVESGGGLVQAGGSLRLSCAASGSTFAPNAMGWYRQAPGKERELVAVIDSGDGTTYYADSVKGRFTISRDNAKNTVYLQMNSLKPEDTAVYYCAVDESTSYYDDHEDYWGQGTQVTVSS | low polyreactivity
4 | QVQLVESGGGLVQAGGSLRLSCAASGSTFAPYAMGWYRHAPGKERELVASIRSTGSTNYADSVKGRFTISRDNAKNTVYLQMNSLKPEDTAVYYCAARYRRYQYRVKVDYYYWGQGTQVTVSS | high polyreactivity
5 | QVQLVESGGGLVQAGGSLRLSCAASGSTFAPYAMGWYRQAPGKERELVAVISSAGSTYYADSVKGRFTLSRDNAKNTDYLQRNSLKPEDTAVYYCAARAPSSISQSRGMYYWGQATQVTVSS | high polyreactivity
6 | QVQLVESGGGLVQAGGSLRLSCAASGSTFAQNAMGWYRQAPGKERELVAAISRRGGSTYYADSVKGRFTISRDNAKNTVYLQMNSLKPEDTAVYYCAADQPVRQHHRDDYWGQGTQVTVSS | low polyreactivity
7 | QVQLVESGGGLVQAGGSLRLSCAASGSTFAQNAMGWYRQAPGKERELVAAISRRGTITNYADSVKGRFTISRDNAKNTVYLQMNSLKPEDTAVYYCAKEGTWTGGSDNYWGQGTQVTVSS | high polyreactivity
8 | QVQLVESGGGLVQAGGSLRLSCAASGSTFAQNTMGSYRQAPGKERELVATISDGGGSTYYADSVKGRFTISRDNAKNTVYLQMNSLKPEDTAVYYCNTDRFWPSYYWGQGTQVTVSS | low polyreactivity
9 | QVQLVESGGGLVQAGGSLRLSCAASGSTFARNVMGWYRQAPGKERELVAAISWRGGRTYYADSVKGRFTISRDNAKNTVYLQMNSLKPEDTAVYYCNAVKRLKVTHSYEYGYWGQGTQVTVSS | high polyreactivity
10 | QVQLVESGGGLVQAGGSLRLSCAASGSTFARYAMGWSRQAPGKERELVAAISDSSGSTYYADSVKGRFTISRDNAKNTVYLQMNSLKPEDTAVYYCRYYFGSGYYYWGQGTLVTVSS | high polyreactivity
11 | QVQLVESGGGLVQAGGSLRLSCAASGSTFARYAMGWYRQAHGKERELVAAISRRGGSTYYADSVKGRFTISRDNAKNTVYVQMNSLKPEDTAVHYCAARYGIISSFEYDYWGQGTQVTVSS | high polyreactivity
12 | QVQLVESGGGLVQAGGSLRLSCAASGSTFARYAMGWYRQAPGKERELFAVITWTGGSTYYADSVKGRFTISRDNAKNTVYLQMNSLKPEDTAVYYCAADFRYYVTALKYDYWGQGTQVTVSS | low polyreactivity
13 | QVQLVESGGGLVQAGGSLRLSCAASGSTFARYAMGWYRQAPRKERELVAAISRSGGSTNYADSVKGRFTISRDNAKNTVYLQMNSLKPEDTAVYYCAVRSGYYDKYVRGYDYWGQGTQVTVSS | high polyreactivity
14 | QVQLVESGGGLVQAGGSLRLSCAASGSTFARYTMGWYRQAPGKERELVAAITSNGVSTYYADSVKGRFTISRDNAKNTVYLQMNSLKPEDTAVYYCAAEYRPRYKRIWVVTKDYWGQGTQVTVSS | low polyreactivity
15 | QVQLVESGGGLVQAGGSLRLSCAASGSTFASHVMGWYRQAPGKERELVAAITRGDRTHYADSVKGRFTISRDNAKNTVYLQMNSLKPEDTAVYYCAKVTTLGRSRDYWGQGTQVTVSS | low polyreactivity
16 | QVQLVESGGGLVQAGGSLRLSCAASGSTFASNAMGWDRQAPGKERELVAVITWRGDRTYYADSVKGRFTISRDNAKNTVYLQMNSLKPEDTAVYYCAADAYRRYGVGWEDYWGQGTQVTVSS | high polyreactivity
17 | QVQLVESGGGLVQAGGSLRLSCAASGSTFATNAMGWDRQAPGKERELVASISSGGSTTYADSVKGRFTISRDNAKNTVYLQMNSLKPEDTAVYYCNKRYLWRNSRGFDYWGQGTQVTVSS | low polyreactivity
18 | QVQLVESGGGLVQAGGSLRLSCAASGSTFATYAMGWYRQAPGKERELVAAITSGGSTYYADSVKGRFTISRDNAKNTFYFQMNSLKPEDTAVYYCAARSAGWRRATYYKREEYWGQGTQVTVSS | high polyreactivity
19 | QVQLVESGGGLVQAGGSLRLSCAASGSTFATYTMGWYRQAPGTERELVAAITGSVGSTYYADSVMGRFTISRDNAKNTVYVQMNSRKPQDTAVFYCAARGYRTRRGFTYQYRYEYWGQGTQVTVSS | high polyreactivity
20 | QVQLVESGGGLVQAGGSLRLSCAASGSTFAVNAMGWYRQAPGKERELVAAITSGGNTYADSVKGRFTISRDNAKNTVYLQMNSLKPEDTAVYYCAAALTEVVYWIYDYWGQGTQVTVSS | low polyreactivity
21 | QVQLVESGGGLVQAGGSLRLSCAASGSTFAVYAMGWYRPAPGKERELVAGISSRGGRTYYADSVKGRFTISRDNAKNTVYLQMNSLKPEDTAVYYCAARFKGNPDRYGYWGQGTQVTVSS | high polyreactivity
22 | QVQLVESGGGLVQAGGSLRLSCAASGSTFAVYGMGWYRQAPGKERELVAAISSSGARTYYADSVKGRFTISRDNAKNTVYLQMNSLKPEDTAVYYCAALPHRQAGYDYWGLGTQVTVSS | high polyreactivity

Row | Sequence | polyreactivity (PSR sort gate)
23 | QVQLVESGGGLVQAGGSLRLSCAASGSTFAWNAMGWYRQAPGKERELVAAISKSGGSTYYADSVKGRFTISRDHAKNTVYLQMNSLTPEDTAVYYCAARGTVYRRYGGSRYDYWGQGTQVTVSS | high polyreactivity
24 | QVQLVESGGGLVQAGGSLRLSCAASGSTFAWNVMGWYRQAPGKERELVAAISGRGGSTYYADSVKGRFTISRDNAKNTVYLQMNSLKPEDTAVYYCNKVYGRSRDVYDYDYWGQGTQVTVSS | high polyreactivity
25 | QVQLVESGGGLVQAGGSLRLSCAASGSTFAWYAMGWYRQAPGKERELVATISSSGVSTFYADSVKGRFTISRDNAKNTVYLQMNSLKPEDTAVYYCNRYGNSYYFAPGPLYNYWGQGTQVTVSS | high polyreactivity
26 | QVQLVESGGGLVQAGGSLRLSCAASGSTFAYNALGWYRQAPGKERELVAAIDINDGNTYYADSVKGRFTISRDTAKNTVNLQINSLKPEDTAVYYCAAEYFYPYYGAMDYWGQGTQVTVSS | low polyreactivity
27 | QVQLVESGGGLVQAGGSLRLSCAASGSTFAYNAMGWYRQAPGKERELVAAIDINDGNTYYADSVKGRFTISRDNAKNTVYLQMNSLNPEDTAVYYCAAEGPYYLGLDGVKDDYWGQGTQVTVSS | low polyreactivity
28 | QVQLVESGGGLVQAGGSLRLSCAASGSTFAYNAMGWYRQAPGKERELVAAISWGDGITYYADSVKGRFTISRDNAKNTVYLQMNSLKPEDTEVITRDFGYWGQGTQVTVSS | low polyreactivity
29 | QVQLVESGGGLVQAGGSLRLSCAASGSTFAYNAMGWYRQAPGKERELVARISSSGDITYYADSVKGRFTISRDNAKNTVYLQMNSLKPEDTAVYYCAKRYLTRYKGYYYWGQGTQVTVSS | high polyreactivity
30 | QVQLVESGGGLVQAGGSLRLSCAASGSTFAYNAMGWYRQAPGKERELVASITVSVGSTYYADSVKGRFTISRDNAKNTVYLQMNSLKPEDTAVYYCAARVTRRSSTYWVPRTGYYYWGQGTQVTVSS | low polyreactivity
31 | QVQLVESGGGLVQAGGSLRLSCAASGSTFAYNDMGWYRQAPWKERDLVADIRSGGNTNYADSVKGRFTISRDNAKNTVYLQMNILKPEDTAVYYCASDGYRIDVYHPDYRYDYWGQGTQVTVSS | low polyreactivity
32 | QVQLVESGGGLVQAGGSLRLSCAASGSTFAYYAMGWYRHAPGKERELVAAISSGGSTYYADSVKGRFTISRDNAKNTVYLQMNSLKPEDTEVYYCNKLWVGKFKRYEFGYWGQGSQVTVSS | low polyreactivity
33 | QVQLVESGGGLVQAGGSLRLSCAASGSTFAYYAMGWYRQAPGKERELVAAISRTGGSTYYADSVKGRFTISRDNAKNTVYLQMNSLKPEDNAVYYCNARGPVGTFDYDYWGQGTQVTVSS | low polyreactivity
34 | QVQLVESGGGLVQAGGSLRLSCAASGSTFAYYAMGWYRQAPGKERELVAAITWSGGRTYYADSVKGRFTISRDNAKNTVYLQMNSLKPEDTAVYYCAAGQQHSLFRVPQYRNRAFYYWGQGTQVTVSS | high polyreactivity
35 | QVQLVESGGGLVQAGGSLRLSCAASGSTFAYYAMGWYRQAPGKERELVARITASGGRTYYADSVKGRFTISRDNAKNTVYLQMNSLKPEDTAVYYCAKGRYVEVSYGAHYDYWGQGTQVTVSS | low polyreactivity
36 | QVQLVESGGGLVQAGGSLRLSCAASGSTFAYYAMGWYRQAPGKERELVAVISVRGGSTYYADSVKGRFTISRDNAKNTVYLQMNSLKPEDTAVYYCAADTFAGYYYWGQGTQVTVSS | high polyreactivity
37 | QVQLVESGGGLVQAGGSLRLSCAASGSTFAYYTMGWYREAPGKERELVAAISKSGGSTTYADSVKGRFTISRDNAKNTVYLQMNSLKPEDTAVYYCAAYDRVENYNYWGQGTQVTVSS | high polyreactivity
38 | QVQLVESGGGLVQAGGSLRLSCAASGSTFAYYTMGWYRPGPGKEREMVAAIRGGGRTYYADSVKGRFTISRDNAKNTVYLQMNSLKPEDTAVYYCAATVYVTKGYGYWGQGTQVTVSS | high polyreactivity
39 | QVQLVESGGGLVQAGGSLRLSCAASGSTFAYYTMGWYRQAPGKERELVAAISRRGGSTYYADSVKGRFTISRDNAKNTVYLQMNSLKPEDTAVYYCAASFKGPGYYRYYYWGQGTQVTVSS | high polyreactivity
40 | QVQLVESGGGLVQAGGSLRLSCAASGSTFAYYTRGWYRQAPGKERELVAAITSGGRTSYADSVKGRFTISRDNAKNSVYLQMNSLKPEDTAVYYCAKGRKPGYYYWGQGTQVTVSS | high polyreactivity
41 | QVQLVESGGGLVQAGGSLRLSCAASGSTFAYYVMGWYRQAPGKERELVAAITGTGGSTYYADSVKGRFTISRDNAKNTVYLQLNSLKPEDTAVYYCAAETPIYYGYWYDSWGQGTQVTVSS | high polyreactivity
42 | QVQLVESGGGLVQAGGSLRLSCAASGSTFCTYAMGWYRQAPGKERELVAAITQRGASTYYADSVKGRFTISRDNAKNTVYLQMNSLKPEDTAVYYCAAYKRGRPEMDYWGQGTQVSVSS | high polyreactivity
43 | QVQLVESGGGLVQAGGSLRLSCAASGSTFDANAMGWSRQAPRKERELVATISDGGSTNYADSVKGRFTISSDNAKNTVYLQMISVKPEDTAVYYCAAVKLFLGLGFEYWGQGTQVTVSS | low polyreactivity
